Source: PMC10844744, “C9orf72-associated dipeptide protein repeats form A11-positive oligomers in amyotrophic lateral sclerosis and frontotemporal dementia” (The Journal of Biological Chemistry, 2024)

Biological target: the molecule itself
Experiment: far-Western, overlay or dot blot; synthetic DPRs gently stirred in 1x PBS for 6 days, aliquots at days 1, 2, 4 and 6; 1 ul of 1 mg/ml dotted on nitrocellulose; oligomers read out with oligomer-specific antibody A11-19 (1:8000), fibrillar aggregates with OC (1:10,000)

Protein | binding result
GRGRGR (source: synthetic peptide (Scenic Biotech)) [glycine–arginine dipeptide protein repeat, 3 repeats (GR3)] | binds
PRPRPR (source: synthetic peptide (Scenic Biotech)) [proline–arginine dipeptide protein repeat, 3 repeats (PR3)] | binds
PRPRPRPRPRPR (source: synthetic peptide (Scenic Biotech)) [proline–arginine dipeptide protein repeat, 6 repeats (PR6)] | binds
GAGAGAGAGAGA (source: synthetic peptide (Scenic Biotech)) [glycine–alanine dipeptide protein repeat, 6 repeats (GA6)] | binds
GAGAGA (source: synthetic peptide (Scenic Biotech)) [glycine–alanine dipeptide protein repeat, 3 repeats (GA3)] | binds
GRGRGRGRGRGR (source: synthetic peptide (Scenic Biotech)) [glycine–arginine dipeptide protein repeat, 6 repeats (GR6)] | binds

Biological target: the molecule itself
Experiment: far-Western, overlay or dot blot; monomeric 12-repeat DPRs seeded with brain-derived DPRs at 1:70 M ratio (seed to monomer), orbital shaker, 37 °C, 72 h; oligomerization confirmed by dot blot

Protein | binding result
GAGAGAGAGAGAGAGAGAGAGAGA (source: synthetic peptide (Scenic Biotech)) [glycine–alanine dipeptide protein repeat, 12 repeats (GA12)] | binds
GRGRGRGRGRGRGRGRGRGRGRGR (source: synthetic peptide (Scenic Biotech)) [glycine–arginine dipeptide protein repeat, 12 repeats (GR12)] | binds
PRPRPRPRPRPRPRPRPRPRPRPR (source: synthetic peptide (Scenic Biotech)) [proline–arginine dipeptide protein repeat, 12 repeats (PR12)] | binds
